Where two headings read alike, the source gives them in different places.
How the values were obtained:
[1] = target: N-terminal SH3 domain of Drk (T22G); test: 1H-13C HMQC titration of SH3 into 13C-Ile Sos site 4 (NMR TITAN); format: binding, Drosophila melanogaster; conditions: for Kd: 51.5 μM Sos site 4, 20 mM sodium phosphate pH 7.5, 5% D2O; for Kd / koff / kon / ΔGA°′‡ (activation free energy of association) / ΔGD°′ (dissociation free energy) / ΔGD°′‡ (activation free energy of dissociation): single measurement, bootstrap; for koff / kon / ΔGA°′‡ (activation free energy of association) / ΔGD°′ (dissociation free energy) / ΔGD°′‡ (activation free energy of dissociation): pH 7.5
Excerpt: As an alternative, we measured binding of Sos and SH3 from the opposite perspective, that is, by monitoring the interaction via Sos by moving the NMR-active nuclei from SH3 to Sos. Specifically, we isotopically enriched (^13C-δ1 methyl) isoleucines in the site 4 protein construct. This construct has three isoleucines: I1384 is in site 4; I1394 is adjacent to site 4; and I1325 is likely distant from site 4. Assignments were made via mutagenesis (Supplemental Material, Fig. S5). […] High-quality fits were obtained using two-dimensional lineshape analysis (Figs. S6–S10), yielding affinities (Table 1) similar to those from ITC (Table 2), and site 4 peptide, but only at low temperatures (Table 1) ([34]).
Figure 3 ^1H–^13C HMQC titration of Sos site 4 at 35 °C.A, spectra. B, simulated spectra from TITAN fits. C, van’t Hoff and Eyring analyses of ^1H–^13C HMQC titrations. Measurements were made with a constant concentration of 51.5 μM Sos site 4, with titration points signified by crosspeaks of different colors. SH3 concentrations are 270, 122, 100, 75.0, 50.0, 37.5, 25.0, 12.5, 6.25, 3.13, […], 0.781, 0.391, and 0 μM. HMQC, heteronuclear multiple quantum correlation; Sos, Son of sevenless.
NMR data were acquired using Bruker Avance III HD spectrometers equipped with QCI cryoprobes (^1H Larmor frequencies of 500, 470 MHz for ^19F), or TCI cryoprobes (^1H Larmor frequencies of 850 MHz, 213 MHz for ^13C). Data were processed using NMRpipe (2020.171.18.39). Spectra across different temperatures are referenced to trimethylsilylpropanesulfonate.
^1H–^13C correlation spectra were acquired using a heteronuclear multiple quantum correlation experiment (optimized for the methyl transverse relaxation optimized spectroscopy effect) ([66]) with between 8 and 40 scans, depending on the signal/noise of the Ile1384 peak. The ^1H sweep width was 15 PPM using 5120 complex points and a center frequency at 4.7 PPM. Forty-eight complex points were collected in the indirect dimension, with a sweep width of 5 PPM, and a center frequency of 12.5 PPM. The water signal was suppressed and dephased using a combination of presaturation and selective shaped pulses. Sos site 4 protein was exchanged into 20 mM sodium phosphate, pH 7.5 plus 5% (v/v) D2O using a PD-10 midi desalting column (Cytiva); its concentration was then adjusted to 51.5 μM. Four hundred microliters of Sos site 4 solution were used to dissolve lyophilized SH3 for the initial titration point, and then spectra were acquired at 4.2, 15, 25, 35, and 45 °C. The solution containing only Sos site 4 was used for a series of dilutions to obtain SH3 titration points of 270, 122, 100, 75.0, 50.0, 37.5, 25.0, 12.5, 6.25, 3.13, 1.56, 0.781, 0.391, and 0 μM.
^1H–^13C heteronuclear multiple quantum correlation titration measurements of SH3 into [^13CH3-Ile]-labeled Sos were analyzed using NMR TITAN, version 1.6 ([34]). Measurements for each temperature were fit to a two-state interaction model, and parameter uncertainties were estimated from 100 bootstrapped replicas ([34], [67]). Ile1384, Ile1394, Ile1325, and one pseudo peak were fit as a single spin group to account for overlapping resonances. Measurements across multiple temperatures were then fitted to the van’t Hoff and Eyring equations to determine Δ HD°′ , TΔ SD,298.15K°′ , Δ HA°′‡ , TΔ SA,298.15K°′‡ , Δ HD°′‡ , and TΔ SD,298.15K°′‡ . Errors generated from TITAN fits were used to perform weighted least squares regressions, and the reported uncertainties are the 95% confidence intervals of fits.

[2] = tested on: N-terminal SH3 domain of Drk (T22G); test: ITC of Sos constructs (cell) with SH3 (syringe); format: binding, Drosophila melanogaster; conditions: for Kd: single-site model
Protocol: volume solution of SH3 was prepared in the same buffer, at an identical concentration of SH3. Measurements were
made at 4.2, 15, 25, 35 and 45 °C. The sample was then removed, diluted using the larger SH3 solution and returned
(§1) µM, with SH3 at 270 µM (Figure S3, Table S2).

[3] = target: T1, N-terminal SH3 domain of Drk (T22G, 19F-W36) (Drosophila melanogaster, UniProt Q08012, T22G); test: 19F NMR titration of SH3 with Sos site 4 (two-state and bidentate fits); format: binding
T1 construct: the N-terminal SH3 domain of Drk (UniProt ID: Q08012); 19F label: 5-fluorotryptophan at W36 (chemical label on the side chain); made in house
Protocol: Data were acquired using Bruker Avance III HD spectrometers equipped with a QCI cryoprobe (1H Larmor frequencies of 500, and 470 MHz for 19F). Data was processed using NMRpipe (2020.171.18.39) and referenced to trimethylsilylpropanesulfonate to account the temperature dependence of chemical shift. […]
site 4 (non-MBD tagged construct) was exchanged into of 50 mM HEPES, 50 mM bis-tris propane, 50 mM sodium acetate pH 7.5 plus 5% (v/v) D2O using a PD-10 Midi column (Cytiva) selecting the fractions with the highest concentration for the titration. The Sos solution was used to dissolved one aliquot of SH3, and a second, larger […]
volume solution of SH3 was prepared in the same buffer, at an identical concentration of SH3. Measurements were made at 4.2, 15, 25, 35 and 45 °C. The sample was then removed, diluted using the larger SH3 solution and returned […]
as §1

[4] = 298 K, linear Eyring fit, 95% confidence interval
[5] = linear Eyring fit, 95% confidence interval
[6] = 4.2 °C, SMG construct, 20 mM sodium phosphate pH 7.5, knockout subtracted, three fits
[7] = 4.2 °C, bidentate fit, strong site
[8] = 4.2 °C, bidentate fit, weak/nonspecific site
[9] = 15 °C, bidentate fit, strong site
[10] = 15 °C, bidentate fit, weak/nonspecific site
[11] = 25 °C, bidentate fit, strong site
[12] = 25 °C, bidentate fit, weak/nonspecific site
[13] = 35 °C, bidentate fit, strong site
[14] = 35 °C, bidentate fit, weak/nonspecific site
[15] = 45 °C, bidentate fit, strong site
[16] = 45 °C, bidentate fit, weak/nonspecific site

T1 sequence (Q08012 1-58 T22G): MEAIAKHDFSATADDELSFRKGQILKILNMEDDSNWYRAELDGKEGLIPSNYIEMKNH

B1: Site 4: Sos residues 1177 to 1405, L1203A, L1372A, R1375A, C1306S, C1357S, L1346A, R1349A, R1350A (protein, UniProt P26675 1177-1405, looked up, variant L1203A L1372A R1375A C1306S C1357S L1346A R1349A R1350A)
chain: TSSWSGTPQHTRTDQNNGEVSVPAPHAPKKPGAHVWANNNSTLASASAMDVVFSPALPEHLPPQSLPDSNPFASDTEAPPSPLPKLVVSPRHETGNRSPFHGRMQNSPTHSTASTVTLTGMSTSGGEEFSAGGFYFNSAHQGQPGAVPISPHVNVPMATNMEYRAVPPPAPPAAKERTESSADMAQKRQAPDAPTAPPADGELSPPPIPPRLNHSTGISYLRQSHGKSK
Kd ([1]; 4.2 °C): 3 ± 0.2 µM
koff ([1]; 4.2 °C): 0.093 ± 0.002 10^3 s^−1
kon ([1]; 4.2 °C): 0.31 ± 0.02 10^8 M^−1 s^−1
ΔGA°′‡ (activation free energy of association) ([1]; 4.2 °C): 6.69 ± 0.07 kcal/mol
ΔGD°′ (dissociation free energy) ([1]; 4.2 °C): 7.01 ± 0.07 kcal/mol
ΔGD°′‡ (activation free energy of dissociation) ([1]; 4.2 °C): 13.70 ± 0.02 kcal/mol
temperature dependence of ΔGD°′‡ and ΔGA°′‡ ([1]; 4.2–45 °C): do not change with temperature
Kd ([1]; 15 °C): 4.5 ± 0.2 µM
koff ([1]; 15 °C): 0.25 ± 0.09 10^3 s^−1
kon ([1]; 15 °C): 0.56 ± 0.03 10^8 M^−1 s^−1
ΔGA°′‡ (activation free energy of association) ([1]; 15 °C): 6.64 ± 0.06 kcal/mol
ΔGD°′ (dissociation free energy) ([1]; 15 °C): 7.05 ± 0.04 kcal/mol
ΔGD°′‡ (activation free energy of dissociation) ([1]; 15 °C): 13.69 ± 0.04 kcal/mol
Kd ([1]; 25 °C): 6.4 ± 0.2 µM
koff ([1]; 25 °C): 0.62 ± 0.03 10^3 s^−1
kon ([1]; 25 °C): 0.97 ± 0.06 10^8 M^−1 s^−1
ΔGA°′‡ (activation free energy of association) ([1]; 25 °C): 6.56 ± 0.06 kcal/mol
ΔGD°′ (dissociation free energy) ([1]; 25 °C): 7.09 ± 0.03 kcal/mol
ΔGD°′‡ (activation free energy of dissociation) ([1]; 25 °C): 13.64 ± 0.05 kcal/mol
Kd ([1]; 35 °C): 9.7 ± 0.2 µM
koff ([1]; 35 °C): 1.25 ± 0.04 10^3 s^−1
kon ([1]; 35 °C): 1.29 ± 0.05 10^8 M^−1 s^−1
ΔGA°′‡ (activation free energy of association) ([1]; 35 °C): 6.62 ± 0.04 kcal/mol
ΔGD°′ (dissociation free energy) ([1]; 35 °C): 7.07 ± 0.02 kcal/mol
ΔGD°′‡ (activation free energy of dissociation) ([1]; 35 °C): 13.69 ± 0.03 kcal/mol
Kd ([1]; 45 °C): 17.8 ± 0.5 µM
koff ([1]; 45 °C): 4.4 ± 0.2 10^3 s^−1
kon ([1]; 45 °C): 2.5 ± 0.1 10^8 M^−1 s^−1
ΔGA°′‡ (activation free energy of association) ([1]; 45 °C): 6.45 ± 0.05 kcal/mol
ΔGD°′ (dissociation free energy) ([1]; 45 °C): 6.91 ± 0.03 kcal/mol
ΔGD°′‡ (activation free energy of dissociation) ([1]; 45 °C): 13.36 ± 0.05 kcal/mol
TΔSA°′‡ (activation entropy of association) [1, 4]: 1 ± 1
TΔSD°′‡ (activation entropy of dissociation) [1, 4]: 1 ± 2
TΔSD°′ (van't Hoff) ([1]; 298 K, linear van't Hoff fit, 95% confidence interval): 0 ± 2 kcal/mol
ΔHA°′‡ (activation enthalpy of association) [1, 5]: 7 ± 1 kcal/mol
ΔHD°′‡ (activation enthalpy of dissociation) [1, 5]: 14 ± 1 kcal/mol
ΔHD°′ (van't Hoff) ([1]; linear van't Hoff fit of 4.2-45 °C data, 95% confidence interval): 7 ± 2 kcal/mol
Kd [2, 6]: 3 ± 1 µM
ΔHD°′ [2, 6]: 2.8 ± 0.1 kcal/mol
Kd ([2]; 35 °C (35.1 in Table S1), SMG construct, 20 mM sodium phosphate pH 7.5, knockout subtracted, three fits): 14 ± 3 µM
sign of ΔCP,D ([2]; from ΔHD°′ at 4.2 and 35 °C): positive
stoichiometry before knockout subtraction ([2]; unsaturated after >3 mole equivalents, specific plus nonspecific binding): > 1
Site 1 koff [3, 7]: 0.080 103 s-1
Site 1 kon [3, 7]: 0.37 108 s-1 M-1
Kd ([3]; 4.2 °C, bidentate fit, strong site, 50 mM HEPES, 50 mM bis-tris propane, 50 mM sodium acetate pH 7.5, 5% D2O, MG construct, read-out: Site 1 KD): 2.15 µM
Site 2 koff [3, 8]: 11 ± 4 103 s-1
Site 2 kon [3, 8]: 0.15 108 s-1 M-1
Kd ([3]; 4.2 °C, bidentate fit, weak/nonspecific site, read-out: Site 2 KD): 800 µM
Kd ([3]; 4.2 °C, two-state model (poor fit), read-out: KD): 0.3 µM
Site 1 koff [3, 9]: 0.239 103 s-1
Site 1 kon [3, 9]: 0.49 108 s-1 M-1
Kd ([3]; 15 °C, bidentate fit, strong site, pH 7.5, read-out: Site 1 KD): 4.9 µM
Site 2 koff [3, 10]: 15 ± 4 103 s-1
Site 2 kon [3, 10]: 0.10 108 s-1 M-1
Kd ([3]; 15 °C, bidentate fit, weak/nonspecific site, read-out: Site 2 KD): 1500 µM
Site 1 koff [3, 11]: 0.667 103 s-1
Site 1 kon [3, 11]: 0.63 108 s-1 M-1
Kd ([3]; 25 °C, bidentate fit, strong site, pH 7.5, read-out: Site 1 KD): 10.6 µM
Site 2 koff [3, 12]: 19 ± 5 103 s-1
Site 2 kon [3, 12]: 0.06 108 s-1 M-1
Kd ([3]; 25 °C, bidentate fit, weak/nonspecific site, read-out: Site 2 KD): 3000 µM
Site 1 koff [3, 13]: 1.74 103 s-1
Site 1 kon [3, 13]: 0.80 108 s-1 M-1
Kd ([3]; 35 °C, bidentate fit, strong site, pH 7.5, read-out: Site 1 KD): 21.7 µM
Site 2 koff [3, 14]: 23 ± 7 103 s-1
Site 2 kon [3, 14]: 0.04 108 s-1 M-1
Kd ([3]; 35 °C, bidentate fit, weak/nonspecific site, read-out: Site 2 KD): 6000 µM
Site 1 koff [3, 15]: 4.29 103 s-1
Site 1 kon [3, 15]: 1.01 108 s-1 M-1
Kd ([3]; 45 °C, bidentate fit, strong site, pH 7.5, read-out: Site 1 KD): 42.6 µM
Site 2 koff [3, 16]: 30 ± 10 103 s-1
Site 2 kon [3, 16]: 0.03 108 s-1 M-1
Kd ([3]; 45 °C, bidentate fit, weak/nonspecific site, read-out: Site 2 KD): 10000 µM

Reference: paper PMC10027511, “Disordered proteins mitigate the temperature dependence of site-specific binding free energies” (The Journal of Biological Chemistry, 2023)
